Values of other authors as cited in paper PMC4729772 (Theranostics, 2016).

## Albiglutide: glucagon-like peptide-1 dimer fused to human albumin
  half-life: four to seven
